Entries after “also recorded” stand apart in the source; their conditions may differ.
Legend:
[1] = test system: P. aeruginosa P5 (mucoid); experiment: Mouse model of acute lung infection, P. aeruginosa P5; assay type: in vivo, Pseudomonas aeruginosa
Description: (§1) Model of acute lung infection. Female C57/BL6 mice were inoculated intranasally with 25 μl of bacterial culture containing approximately 10^7 CFU of the selected P. aeruginosa strain^36. Antibiotic treatments were administered at either 6 h pre-infection or 1 h post-infection and were administered only once. Pyocins or tobramycin dissolved in PBS were administered via intranasal administration as described above. Two different end-points were used in these experiments. In order to determine a reduction in the bacterial load of the lungs compared to the untreated controls, all mice in the experiment were culled by carbon dioxide asphyxiation at the same time; 4-6 h post infection. To determine if mice could survive infection after pyocin or tobramycin treatment, mice were monitored closely, culled by carbon dioxide asphyxiation when required as determined by a scoring system or culled at the pre-determined 24 h time point. Uninfected mice, treated with pyocins, were used as controls in the first series of experiments in order to ensure no adverse effects from pyocin treatment. These controls were stopped in later experiments in order to reduce the number of animals used, once it was clear that the pyocins were not harmful. For CFU determination, lungs were removed aseptically and kept on ice in 750 μl of PBS until homogenised. Serial 10-fold dilutions of the homogenised lung were plated on Pseudomonas selective agar (20 g peptone, 1.5 g K2HPO4, 1.5 g MgSO4·7H2O, 10 ml glycerol, 15 g agar, 0.025 g Irgasan per litre) and incubated at 37° C. for 24 h and then room temperature for 24 h before the colonies were counted.
(§2) Since strains of P. aeruginosa are phenotypically diverse, we tested the efficacy of the pyocins against three additional isolates: P. aeruginosa P17 and P. aeruginosa P5 (mucoid), both from cystic fibrosis patients and P. aeruginosa E2, an environmental isolate. Pyocin S2 was not active against P. aeruginosa P5 or P. aeruginosa E2 in vitro therefore was not used to treat these strains in vivo and similarly pyocin L1 was not used against P. aeruginosa P17. […] Lung homogenates from P. aeruginosa E2-infected AP41-treated mice contained high levels of viable bacteria, reduced only 10-fold relative to control mice (Table 1). […] Thus, pyocins show strong efficacy against diverse strains of P. aeruginosa with pyocin S5 treatment displaying the largest effect on reducing bacterial load.

[2] = test system: P8AP41T; experiment: Mouse model of acute lung infection, AP41 tolerant strain P8AP41T; assay type: in vivo, Pseudomonas aeruginosa; details: 3 mg ml^−1 1 h post-infection
Description: as §1
(§3) In order to determine if pyocin tolerance or resistance was acquired upon pyocin treatment in vivo, viable bacteria recovered from mice that survived infection to the 24 h end-point, in all experiments discussed in this work, were tested for pyocin susceptibility. From these experiments no pyocin resistant colonies were isolated. […] Importantly, sensitivity to pyocins S5 and L1 were unaffected in vitro in this pyocin AP41-tolerant strain (FIG. 3a) and this was also shown to be the case in vivo when mice were infected with P8AP41T.

[3] = test system: P. aeruginosa P17; experiment: Mouse model of acute lung infection, P. aeruginosa P17; assay type: in vivo, Pseudomonas aeruginosa
Description: as §1, §2

[4] = test system: P. aeruginosa P8; experiment: Repeated pyocin exposure followed by P. aeruginosa P8 lung infection and pyocin S5 treatment; assay type: in vivo, Pseudomonas aeruginosa; details: for survival: infected at thirteen weeks, 75 μg intranasal 1 h post-infection
Description: Repeated pyocin exposure. Pyocin S5 or PBS was given three times, two weeks apart with administration either via intranasal route (referred to as I.N. groups) or intraperitoneal route (referred to as I.P. groups). For I.N. administration the groups were: PBS and pyocin S5 (75 μg; 25 μl at 3 mg ml^−1). For I.P. administration the group was pyocin S5 (75 μg; 100 μl at 750 μg ml^−1). The PBS I.N. group served as the control group for the I.P. group. Thirteen weeks after the first exposure mice (n=5) were infected intranasally with P. aeruginosa P8 (I.N group infected with 1.4×10^7 CFU, I.P group infected with 5.0×10^6 CFU) and treated intranasally one hour post-infection with 75 μg of pyocin S5 or PBS, as described previously.
To ascertain if repeated exposure to pyocins gives rise to an antibody response that is detrimental to treatment, mice were repeatedly exposed to pyocin S5 to induce an antibody response and the efficacy of pyocin treatment was determined as before after infection with P. aeruginosa P8. Pyocin S5 was administered three times, with two weeks between each administration, either via the intranasal route (I.N.) or the intraperitoneal (I.P.) route. Thirteen weeks after the first treatment, mice (n=5) were infected intranasally with P. aeruginosa P8 (I.N. group infected with 1.4×10^7 CFU, I.P. group infected with 5.0×10^6 CFU) and treated intranasally 1 h post-infection with 75 μg of pyocin S5 or PBS. A control group administered only PBS intranasally prior to infection was also included. […] The levels of pyocin-S5 specific IgG and IgA were analysed for each mouse.

[5] = test system: P8AP41T; experiment: Pyocin sensitivity in vitro (spot tests) of strain P8AP41T; assay type: cell-based, Pseudomonas aeruginosa; details: spot tests, FIG. 3a
Description: Pyocin sensitivity assays: overlay spot plate method. Soft agar overlay spot plates were performed using the method of ^35. 150 μl of test strain culture at OD600 nm=0.6 was added to 6 ml of 0.8% soft agar and poured over an LB agar plate. 5 μl of bacteriocin, lung homogenate or blood at varying concentrations was spotted onto the plates and incubated for 24 h at 37° C.
as §3

[6] = test system: P. aeruginosa E2; experiment: Mouse model of acute lung infection, P. aeruginosa E2; assay type: in vivo, Pseudomonas aeruginosa
Description: as §1, §2

[7] = test system: collection of diverse environmental and clinical isolates; experiment: Activity against a collection of diverse environmental and clinical isolates; assay type: cell-based, Pseudomonas aeruginosa

B1: Pyocin S5: S-type pyocin, SEQ ID NO: 13; binds FptA, pore-forming effector (protein, listed as Pseudomonas aeruginosa)
chain: MSNDNEVPGSMVIVAQGPDDQYAYEVPPIDSAAVAGNMFGDLIQREIYLQKNIYYPVRSIFEQGTKEKKEINKKVSDQVDGLLKQITQGKREATRQERVDVMSAVLHKMESDLEGYKKTFTKGPFIDYEKQSSLSIYEAWVKIWEKNSWEERKKYPFQQLVRDELERAVAYYKQDSLSEAVKVLRQELNKQKALKEKEDLSQLERDYRTRKANLEMKVQSELDQAGSALPPLVSPTPEQWLERATRLVTQAIADKKQLQTTNNTLIKNSPTPLEKQKAIYNGELLVDEIASLQARLVKLNAETTRRRTEAERKAAEEQALQDAIKFTADFYKEVTEKFGARTSEMARQLAEGARGKNIRSSAEAIKSFEKHKDALNKKLSLKDRQAIAKAFDSLDKQMMAKSLEKFSKGFGVVGKAIDAASLYQEFKISTETGDWKPFFVKIETLAAGAAASWLVGIAFATATATPIGILGFALVMAVTGAMIDEDLLEKANNLVISI
survival / protection ([1]; pyocin 3 mg ml^−1, endpoint 24 h, infected controls culled at 4.5 h): survived until the 24 h endpoint | bacterial count in lung, P5 ([1]; pyocin 3 mg ml^−1, treated mice survived to 24 h, no treatment 1.7 × 10^5 CFU/lung): No colonies | bacterial numbers in lung homogenates ([2]; 24 h (FIG. 3b)): significantly reduced bacterial numbers; also recorded: No colonies were recovered | survival ([2]; endpoint 24 h, PBS controls culled 6 h post-infection (FIG. 3b)): survived until the endpoint of the experiment at 24 h | survival / protection ([3]; pyocin 3 mg ml^−1, endpoint 24 h, infected controls culled at 4 h): survived until the 24 h endpoint | bacterial count in lung, P17 ([3]; pyocin 3 mg ml^−1, treated mice survived to 24 h, no treatment 4.4 × 10^5 CFU/lung): No colonies | survival ([4]; I.N. pre-exposure 75 μg three times two weeks apart): survived to the 24 h time-point | bacterial load of the lungs ([4]; I.N. pre-exposure 75 μg three times, 75 μg intranasal 1 h post-infection (FIG. 8a)): no viable bacteria were recovered | survival ([4]; I.P. pre-exposure 75 μg three times two weeks apart): all survived to the 24 h time-point | bacterial load of the lungs ([4]; I.P. pre-exposure 75 μg three times, 75 μg intranasal 1 h post-infection (FIG. 8c)): no viable bacteria were recovered | sensitivity of the pyocin AP41-tolerant strain in vitro [5]: unaffected | survival / protection ([6]; pyocin 3 mg ml^−1, endpoint 24 h, infected controls culled at 5.5 h): survived until the 24 h endpoint | bacterial count in lung, E2 ([6]; pyocin 3 mg ml^−1, treated mice survived to 24 h, no treatment 1.5 × 10^5 CFU/lung): No colonies | strains against which active [7]: 87%

Reference: patent publication US12162911B2, “Pulmonary administration of pyocins for treating bacterial respiratory infections” (priority 2014, dated 2024)
